Four substances from publication PMC8041770 can be followed below.

The target in test [1] is yeast-displayed human LIF (hLIF, Ser23 to Phe203) (human) (UniProt P15018). Nature of the test: not stated; Supplementary Fig. 7b, not shown; told only in the discussion.
The target in test [2] is yeast-displayed eLIFR CBM I–Ig-like domains ('VPRVVAID') (human). Nature of the test: flow cytometry on cells; LIFR constructs displayed on yeast (EBY100), soluble tagged cytokine (LIF-His and others) in PBS with 1 mg/ml BSA, detected by antibody to the tag; gated on c-myc-positive yeast; apparent affinity by non-linear regression.
Test [3] deals with yeast-displayed mouse LIFR (mouse) (UniProt P42703). Put plainly: flow cytometry on cells; receptor displayed on yeast, soluble cytokine titrated in PBS with 1 mg/ml BSA; bound cytokine detected by fluorescent antibodies; apparent Kd by non-linear regression. In general terms: A flow cytometer gives signals particle by particle.
Sequence of yeast-displayed mouse LIFR (mouse) (P42703 44-1092): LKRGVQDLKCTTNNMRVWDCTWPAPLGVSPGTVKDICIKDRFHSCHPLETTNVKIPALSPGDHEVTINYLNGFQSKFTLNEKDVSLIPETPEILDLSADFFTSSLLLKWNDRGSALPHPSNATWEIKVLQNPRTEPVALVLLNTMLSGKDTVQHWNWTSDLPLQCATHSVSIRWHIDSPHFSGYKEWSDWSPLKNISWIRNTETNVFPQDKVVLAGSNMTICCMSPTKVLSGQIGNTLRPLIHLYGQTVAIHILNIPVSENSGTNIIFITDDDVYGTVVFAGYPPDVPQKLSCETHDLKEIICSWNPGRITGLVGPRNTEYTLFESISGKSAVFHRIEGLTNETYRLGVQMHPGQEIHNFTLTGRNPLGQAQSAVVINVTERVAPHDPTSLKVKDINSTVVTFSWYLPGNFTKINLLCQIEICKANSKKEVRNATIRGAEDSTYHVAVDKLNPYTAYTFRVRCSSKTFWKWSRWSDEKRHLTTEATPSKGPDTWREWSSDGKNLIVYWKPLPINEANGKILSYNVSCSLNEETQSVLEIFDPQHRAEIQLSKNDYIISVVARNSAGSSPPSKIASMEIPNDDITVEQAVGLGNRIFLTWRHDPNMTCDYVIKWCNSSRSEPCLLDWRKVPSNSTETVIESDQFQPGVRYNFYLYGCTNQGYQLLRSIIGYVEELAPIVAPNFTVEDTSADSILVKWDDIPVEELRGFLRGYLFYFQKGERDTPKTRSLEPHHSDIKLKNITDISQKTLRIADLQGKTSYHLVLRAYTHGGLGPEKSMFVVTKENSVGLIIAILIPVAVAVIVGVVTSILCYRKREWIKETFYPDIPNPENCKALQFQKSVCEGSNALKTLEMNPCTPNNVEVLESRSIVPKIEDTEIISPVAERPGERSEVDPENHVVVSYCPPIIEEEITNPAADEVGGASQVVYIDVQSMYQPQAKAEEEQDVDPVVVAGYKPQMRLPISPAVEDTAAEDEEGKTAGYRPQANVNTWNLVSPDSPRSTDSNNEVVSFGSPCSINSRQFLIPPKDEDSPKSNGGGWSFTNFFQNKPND
For test [4], the target named is recombinant human LIF, histidine-tagged (hLIF-His) (UniProt P15018). Put plainly: flow cytometry of yeast-displayed LIFR variants. To be noted: read off a plot.

Sequence of mLIFR-Fc (mouse LIFR CBM I–Ig-like–CBM II fused to an antibody Fc domain) (P42703 44-529): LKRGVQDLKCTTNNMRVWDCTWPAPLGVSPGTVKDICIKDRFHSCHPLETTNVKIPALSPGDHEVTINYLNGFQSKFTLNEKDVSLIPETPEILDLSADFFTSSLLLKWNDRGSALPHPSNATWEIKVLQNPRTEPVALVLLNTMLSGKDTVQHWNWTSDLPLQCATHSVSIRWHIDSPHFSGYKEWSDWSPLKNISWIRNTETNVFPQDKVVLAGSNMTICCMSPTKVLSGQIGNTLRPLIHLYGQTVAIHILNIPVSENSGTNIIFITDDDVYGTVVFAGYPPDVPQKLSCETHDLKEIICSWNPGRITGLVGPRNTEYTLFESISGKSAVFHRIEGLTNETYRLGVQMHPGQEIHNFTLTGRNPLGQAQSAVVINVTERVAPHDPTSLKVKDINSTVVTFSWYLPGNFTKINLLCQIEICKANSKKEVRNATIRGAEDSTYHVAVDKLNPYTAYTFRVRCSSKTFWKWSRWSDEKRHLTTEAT
Sequence of yeast-displayed wild-type human LIFR CBM I–Ig-like domains (Gln45 to Gln337) (P42702 45-337, stated change not applied): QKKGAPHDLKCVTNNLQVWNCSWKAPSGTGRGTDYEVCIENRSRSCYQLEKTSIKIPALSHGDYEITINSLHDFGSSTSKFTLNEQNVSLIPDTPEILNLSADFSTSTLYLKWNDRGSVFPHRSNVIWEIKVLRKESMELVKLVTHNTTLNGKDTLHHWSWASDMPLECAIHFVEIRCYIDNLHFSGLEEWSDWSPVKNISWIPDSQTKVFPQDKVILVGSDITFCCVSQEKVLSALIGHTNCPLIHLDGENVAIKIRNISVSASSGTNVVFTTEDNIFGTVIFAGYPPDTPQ

For the substance “mLIFR-Fc (mouse LIFR CBM I–Ig-like–CBM II fused to an antibody Fc domain) (from UniProt P42703 44-529) (Fc fusion)”, in test [1], the Kd is 1 pM.

“recombinant human LIF, histidine-tagged (hLIF-His) (from UniProt P15018 23-202) (ligand)”: the Kd in test [2] came out at 40 pM.

As to “recombinant human LIF-His (from UniProt P15018 23-202) (ligand)”, the Kd in test [3] stood at 1.1 pM. Regarding “yeast-displayed wild-type human LIFR CBM I–Ig-like domains (Gln45 to Gln337) (from UniProt P42702) PRDSAID”, the ratio to parent in test [4] came out at 5.2.
